This note sets out measurements from patent US20220119492A1 (MEDIKINE, published 2022).

The target of this test is T1, human IL-2Rβ (CD122 protein, Fc Tag) (27-239) (human, UniProt P14784 27-239).
T1 construct: range 27-239; Bought protein; also called hu-IL-2Rβ subunit; IL-2Rβ subunit; not shown: Fc tag of the bought protein
T1 sequence (looked up): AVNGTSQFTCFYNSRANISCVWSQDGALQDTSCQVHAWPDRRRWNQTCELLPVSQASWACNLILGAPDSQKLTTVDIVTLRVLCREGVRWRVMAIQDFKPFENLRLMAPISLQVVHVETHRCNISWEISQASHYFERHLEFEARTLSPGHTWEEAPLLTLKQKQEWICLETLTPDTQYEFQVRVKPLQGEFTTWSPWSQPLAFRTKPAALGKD
In words: phage ELISA competition. In outline: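 In this competitive binding ELISA, test ligands compete with a phage tracer for human IL-2Rβ-Fc, and IC50 is calculated from the absorbance signal over the ligand dilution series. A 50 μL volume of phage tracer was added without washing and left for 45 min at 4° C. TMB was used to detect bound phage for 1 to 15 min at 25° C, after which stop solution was added and absorbance was read at 450 nm.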

Bridge positions count the residues as written; N and C are the ends. Ends that are not written are not given here. A value given as a limit tells only on which side of the number the result lay.

In turn, SNPCWMAQLWELCDLE [SEQ ID NO 2584] gave a 50% inhibitory concentration (IC50) of less than 100 µM.

The molecule ALVGGTFYPCYVAHLGELCDIE [SEQ ID NO 2606] registered an IC50 of less than 100 µM.

The molecule SLPCWIARLGELCDLDGYDGEE [SEQ ID NO 2616] came in with a half-inhibitory concentration (IC50) of less than 100 µM.

The molecule WLPCWMAQLGELCVME [SEQ ID NO 2589] had an IC50 of less than 100 µM.

On to WLPCWLAHLGDICDLQ [SEQ ID NO 2597], for which the concentration for half-maximal inhibition (IC50) was less than 100 µM.

As for WYPCWIAQLGEVCDLEKQTGSV (disulfide 4-13 (inferred)) [SEQ ID NO 2611], the IC50 is less than 100 µM.

WQPCWRAKLGELCDLE (disulfide 4-13 (inferred)) [SEQ ID NO 2594] registered a 50% inhibitory concentration (IC50) of less than 100 µM.

Regarding WNPCWIAQLGDLCDMV [SEQ ID NO 2596], the IC50 is less than 100 µM.

GYPCWLAQLGDYCDLDAGAPSW [SEQ ID NO 2621] yielded an IC50 of less than 100 µM.

As for SLPCWMAQLGELCDLV [SEQ ID NO 2591], the IC50 is less than 100 µM.

In turn, WKPCWMARLGELCDIEDTKVNA [SEQ ID NO 2615] registered an IC50 of less than 100 µM.

In turn, IDRADGWKPCWIAQVGELCVLE [SEQ ID NO 2607] came in with an IC50 of less than 100 µM.

AVSHGNWLPCYIAQLGELCDLD [SEQ ID NO 2609]: the IC50 was less than 100 µM.

Regarding TVGQFEWYPCSTAQLGELCDLD [SEQ ID NO 2605], the half-inhibitory concentration (IC50) was less than 100 µM.

With QKGFLPCWRAQLGQLCDMESQY [SEQ ID NO 2637], the concentration for half-maximal inhibition (IC50) is less than 100 µM.

Molecule WWPCSSAELGEICDFD [SEQ ID NO 2593] gave an IC50 of less than 100 µM.

Consider YVPCYMARLGELCELEANRPGQ [SEQ ID NO 2625], for which the IC50 was less than 100 µM.

SLPCWMAQLGDLCELH (disulfide 4-13 (inferred)) [SEQ ID NO 2583] gave an IC50 of less than 100 µM.

Regarding YWPCSMASLGELCDLEWQGRLP [SEQ ID NO 2633], the IC50 is less than 100 µM.

Regarding WKPCWRAQLGELCDLELGPSER [SEQ ID NO 2631], the IC50 is less than 100 µM.

Turning to WTPCWIAHLGDLCDLEPQDDTD (disulfide 4-13 (inferred)) [SEQ ID NO 2628], the IC50 is less than 100 µM.

Molecule MGSWLPCWMAQLGDLCDVEGGM [SEQ ID NO 2636] registered an IC50 of less than 100 µM.

For WLPCWMAKLGDLCELE [SEQ ID NO 2588], the concentration for half-maximal inhibition (IC50) is less than 100 µM.

For WYPCYMASLGELCDLQSSISPR [SEQ ID NO 2634], the IC50 was less than 100 µM.

In turn, FFPCWMGQLGDLCDLEVRSMQK [SEQ ID NO 2632] had an IC50 of less than 100 µM.

In the case of FYPCWKARLGELCELEELRGYY [SEQ ID NO 2617], the IC50 is less than 100 µM.

As for DTGRDGWKPCWMALLGELCELE (disulfide 10-19 (inferred)) [SEQ ID NO 2601], the IC50 is less than 100 µM.

As for EQGMLGYFPCWKALLGDVCDLD [SEQ ID NO 2602], the IC50 is less than 100 µM.

WYPCWMAQLGELCDHEWPSYGA [SEQ ID NO 2635] showed a concentration for half-maximal inhibition (IC50) of less than 100 µM.

As to LHPCWMAQLGELCDLE [SEQ ID NO 2590], the half-maximal inhibitory concentration (IC50) is less than 100 µM.

YRRERVEFPCWLAQLGELCDKE [SEQ ID NO 2608] showed an IC50 of less than 100 µM.

As to WRVTASLQPCWMAQLGELCDLN [SEQ ID NO 2603], the IC50 is less than 100 µM.

As to WFPCWMAQLGEVCDLD [SEQ ID NO 2581], the half-inhibitory concentration (IC50) is less than 100 µM.

Molecule WKPCWIADLGELCDLAPAWHEY [SEQ ID NO 2618] gave an IC50 of less than 100 µM.

As to YKPCQMAQLGELCDLDVDNKAE [SEQ ID NO 2613], the IC50 was less than 100 µM.

For SKPCWLAQLGDLCDFDWTAADH [SEQ ID NO 2626], the IC50 was less than 100 µM.

GSGWQPCWMADLGELCDLDNEK [SEQ ID NO 2638] gave a half-inhibitory concentration (IC50) of less than 100 µM.

For WYPCWMAHLGDVCDLESFGQTE [SEQ ID NO 2612], the IC50 was less than 100 µM.

As to WKPCWLAQLGELCDLERPSTTS [SEQ ID NO 2623], the half-inhibitory concentration (IC50) was less than 100 µM.

Molecule VRAWYPCWIARLGELCDLEVD (disulfide 7-16 (inferred)) [SEQ ID NO 2580] yielded an IC50 of less than 100 µM.

WKPCWMAGLGELCELD [SEQ ID NO 2592] returned a concentration for half-maximal inhibition (IC50) of less than 100 µM.

WKPCWMAALGELCDLERSVGKV [SEQ ID NO 2630] returned a 50% inhibitory concentration (IC50) of less than 100 µM.

On to WQPCWMAQLGELCDLE [SEQ ID NO 2586], for which the IC50 is less than 100 µM.

WDVHAIRNPCWLAKLGDLCDLD [SEQ ID NO 2599] had a 50% inhibitory concentration (IC50) of less than 100 µM.

SWPCWMAQLGDLCDLDGSAGAS [SEQ ID NO 2622]: the IC50 was less than 100 µM.

In the case of WYSCGKAQLGELCDLDVESQPG [SEQ ID NO 2624], the IC50 is less than 100 µM.

As for WKPCWLAQLGDLCEME [SEQ ID NO 2587], the half-inhibitory concentration (IC50) is less than 100 µM.

In turn, GQVVETSLPCWEAQLGELCVLD [SEQ ID NO 2604] returned an IC50 of less than 100 µM.

YKPCWIAQLGELCELE [SEQ ID NO 2585] came in with an IC50 of less than 100 µM.

The molecule SKPCWMAQLGELCDLDVWNLQM [SEQ ID NO 2620] showed an IC50 of less than 100 µM.

As for WSPCWIATLGELCDLD [SEQ ID NO 2595], the IC50 is less than 100 µM.

In turn, WKPCFIASLGELCDLDQGSVEV [SEQ ID NO 2629] came in with an IC50 of less than 100 µM.

In turn, IPKGESWFPCWMAAMGELCDLE [SEQ ID NO 2610] registered a half-inhibitory concentration (IC50) of less than 100 µM.

WFPCWMAQLGDLCELEPDSVPA [SEQ ID NO 2627] displayed an IC50 of less than 100 µM.

Regarding WYPCHMAKLRELCDLD [SEQ ID NO 2582], the IC50 was less than 100 µM.

As for GAGVLHRWPCWMAKLGDLCDLD [SEQ ID NO 2600], the 50% inhibitory concentration (IC50) is less than 100 µM.

The molecule FKPCWIANLGELCDMDDERSSE [SEQ ID NO 2614] registered an IC50 of less than 100 µM.

On to WLSPPSYLPCWMAQLGELCDLV [SEQ ID NO 2598], for which the IC50 was less than 100 µM.

As for RLPCWRAQLGDLCELDWGLDMG [SEQ ID NO 2619], the IC50 was less than 100 µM.
